# Results taken from publication PMC10039067, “Temporal and spatial assembly of inner ear hair cell ankle link condensate through phase separation” (Nature Communications, 2023).
# Several values for one entry are separate records, joined by “and”; a condition that tells them apart may be missing. Identical values can stand only once. Like-named read-outs stand apart in the source and are kept apart here.
# T1: WHRN NTD (UniProt Q9P202 33-117)
# T1 chain: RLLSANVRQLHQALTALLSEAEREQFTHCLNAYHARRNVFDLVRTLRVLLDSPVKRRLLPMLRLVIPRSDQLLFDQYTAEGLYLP
# T2: WHRN NPDZ1 (UniProt Q9P202 33-239)
# T2 chain: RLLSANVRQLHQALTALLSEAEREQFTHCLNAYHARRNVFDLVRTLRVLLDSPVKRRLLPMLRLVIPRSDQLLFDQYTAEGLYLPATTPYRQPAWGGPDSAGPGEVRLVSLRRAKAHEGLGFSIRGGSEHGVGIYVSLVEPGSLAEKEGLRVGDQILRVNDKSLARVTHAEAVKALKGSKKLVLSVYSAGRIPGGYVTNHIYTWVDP
# T3: WHRN NPDZ12 A64D (UniProt Q9P202 33-377, A64D)
# T3 construct: WHRN, residues 33-377 of UniProtKB Q9P202 with the deafness-related mutation A64D; Mutant made by PCR-based mutagenesis; the ClinVar ids are tied to the mutations by their printed order; source: E. coli BL21 (DE3), purified (Ni2+-NTA, size-exclusion chromatography)
# T3 sequence (looked up): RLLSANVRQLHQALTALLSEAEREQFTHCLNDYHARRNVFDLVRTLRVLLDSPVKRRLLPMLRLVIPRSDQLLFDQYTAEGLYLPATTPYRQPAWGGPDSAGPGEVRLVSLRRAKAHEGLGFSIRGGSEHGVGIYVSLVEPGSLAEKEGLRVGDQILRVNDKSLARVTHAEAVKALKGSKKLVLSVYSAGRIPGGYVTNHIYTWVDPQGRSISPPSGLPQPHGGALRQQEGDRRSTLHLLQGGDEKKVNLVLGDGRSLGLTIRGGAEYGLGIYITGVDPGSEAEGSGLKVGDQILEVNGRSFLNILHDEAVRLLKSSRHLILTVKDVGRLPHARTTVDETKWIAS
# T4: WHRN NPDZ12 T110A (UniProt Q9P202 33-377, T110A)
# T4 construct: WHRN, residues 33-377 of UniProtKB Q9P202 with the deafness-related mutation T110A; source: E. coli BL21 (DE3), purified (Ni2+-NTA, size-exclusion chromatography)
# T4 sequence (looked up): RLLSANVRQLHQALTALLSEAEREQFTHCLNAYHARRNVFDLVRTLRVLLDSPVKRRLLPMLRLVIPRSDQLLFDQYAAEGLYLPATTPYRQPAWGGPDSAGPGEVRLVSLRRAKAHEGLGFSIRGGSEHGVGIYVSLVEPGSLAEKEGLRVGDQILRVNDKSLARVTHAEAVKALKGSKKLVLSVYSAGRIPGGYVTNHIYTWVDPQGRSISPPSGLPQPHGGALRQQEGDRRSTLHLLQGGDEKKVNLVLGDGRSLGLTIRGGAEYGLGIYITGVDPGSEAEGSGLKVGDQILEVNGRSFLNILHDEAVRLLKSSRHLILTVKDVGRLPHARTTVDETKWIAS
# T5: WHRN NPDZ12 R223H (UniProt Q9P202 33-377, R223H)
# T5 construct: WHRN, residues 33-377 of UniProtKB Q9P202 with the deafness-related mutation R223H; source: E. coli BL21 (DE3), purified (Ni2+-NTA, size-exclusion chromatography)
# T5 sequence (looked up): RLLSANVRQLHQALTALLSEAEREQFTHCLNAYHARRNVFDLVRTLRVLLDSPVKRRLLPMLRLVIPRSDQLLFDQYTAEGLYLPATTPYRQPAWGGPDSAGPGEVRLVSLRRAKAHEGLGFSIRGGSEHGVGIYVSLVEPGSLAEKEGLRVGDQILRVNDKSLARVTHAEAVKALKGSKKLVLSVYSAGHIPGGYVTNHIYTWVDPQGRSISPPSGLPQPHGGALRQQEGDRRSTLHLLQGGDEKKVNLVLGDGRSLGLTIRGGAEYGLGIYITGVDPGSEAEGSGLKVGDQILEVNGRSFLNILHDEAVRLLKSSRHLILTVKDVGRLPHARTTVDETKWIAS
# T6: PDZD7 PDZ12 M285R (UniProt E9Q9W7 84-289, M285R)
# T6 sequence: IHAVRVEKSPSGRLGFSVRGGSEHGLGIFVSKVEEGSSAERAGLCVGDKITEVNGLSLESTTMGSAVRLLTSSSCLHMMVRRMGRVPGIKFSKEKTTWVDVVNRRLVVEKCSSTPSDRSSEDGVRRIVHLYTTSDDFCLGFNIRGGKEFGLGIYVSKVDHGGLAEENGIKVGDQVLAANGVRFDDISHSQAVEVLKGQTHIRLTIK
# T7: PDZD7 PDZ12 G228R (UniProt E9Q9W7 84-289, G228R)
# T7 sequence: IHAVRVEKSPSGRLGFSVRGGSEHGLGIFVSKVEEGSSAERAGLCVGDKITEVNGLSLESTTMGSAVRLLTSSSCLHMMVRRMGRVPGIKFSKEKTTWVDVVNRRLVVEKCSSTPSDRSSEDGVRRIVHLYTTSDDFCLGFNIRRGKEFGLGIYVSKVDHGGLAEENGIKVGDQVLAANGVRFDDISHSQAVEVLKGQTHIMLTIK
# B1: WHRN NPDZ12 (domain or fragment, UniProt Q9P202 33-377, looked up)
# chain: RLLSANVRQLHQALTALLSEAEREQFTHCLNAYHARRNVFDLVRTLRVLLDSPVKRRLLPMLRLVIPRSDQLLFDQYTAEGLYLPATTPYRQPAWGGPDSAGPGEVRLVSLRRAKAHEGLGFSIRGGSEHGVGIYVSLVEPGSLAEKEGLRVGDQILRVNDKSLARVTHAEAVKALKGSKKLVLSVYSAGRIPGGYVTNHIYTWVDPQGRSISPPSGLPQPHGGALRQQEGDRRSTLHLLQGGDEKKVNLVLGDGRSLGLTIRGGAEYGLGIYITGVDPGSEAEGSGLKVGDQILEVNGRSFLNILHDEAVRLLKSSRHLILTVKDVGRLPHARTTVDETKWIAS
# notes: WHRN, residues 33-377 (NTD, PDZ1 and PDZ2) of UniProtKB Q9P202; Cloned into pET.32M.3C; Named Trx-WHRN NPDZ12 in SEC-MALS; also called Trx-WHRN NPDZ12; Whirlin; source: E. coli BL21 (DE3), purified (Ni2+-NTA, size-exclusion chromatography); not shown: Trx, N-terminal, kept
# How the values were obtained:
# [1] = target: B1; assay: ITC; MicroCal iTC200, 25 °C; 50 mM tris pH 7.5-8.0, 300 mM NaCl, 1 mM DTT, 1 mM EDTA; cell 20–50 µM, syringe 400–800 µM; one-site binding model
# [2] = target: the molecule itself; assay: SEC-MALS; single proteins at 50 μM; Superose 12 10/300 GL or Superdex 200 increase 10/300 GL; 50 mM tris, 300 mM NaCl, 1 mM DTT, 1 mM EDTA
# [3] = target: T1, WHRN NTD; assay: ITC
# [4] = target: USH2A-CT (UniProt Q2QI47); assay: SEC-MALS; single proteins at 50 μM; Superose 12 10/300 GL or Superdex 200 increase 10/300 GL; 50 mM tris, 300 mM NaCl, 1 mM DTT, 1 mM EDTA
# [5] = target: T2, WHRN NPDZ1; assay: ITC; MicroCal iTC200, 25 °C; 50 mM tris pH 7.5-8.0, 300 mM NaCl, 1 mM DTT, 1 mM EDTA; cell 20–50 µM, syringe 400–800 µM; one-site binding model
# [6] = target: WHRN PDZ1 (UniProt Q9P202); assay: as above
# [7] = target: B1; assay: SEC-MALS; mixtures, each component around 30 µM; Superose 12 10/300 GL or Superdex 200 increase 10/300 GL; 50 mM tris, 300 mM NaCl, 1 mM DTT, 1 mM EDTA
# [8] = target: T3, WHRN NPDZ12 A64D; assay: ITC; MicroCal iTC200, 25 °C; 50 mM tris pH 7.5-8.0, 300 mM NaCl, 1 mM DTT, 1 mM EDTA; cell 20–50 µM, syringe 400–800 µM; one-site binding model
# [9] = target: T4, WHRN NPDZ12 T110A; assay: as above
# [10] = target: T5, WHRN NPDZ12 R223H; assay: as above
# [11] = target: PDZD7 PDZ1 (UniProt E9Q9W7); assay: as above
# [12] = target: PDZD7 PDZ12 (UniProt E9Q9W7); assay: as above
# [13] = target: T6, PDZD7 PDZ12 M285R; assay: ITC
# [14] = target: T7, PDZD7 PDZ12 G228R; assay: ITC
# [15] = target: T2, WHRN NPDZ1; assay: ITC
# PDZD7 PDZ1, sequence (E9Q9W7 81-167): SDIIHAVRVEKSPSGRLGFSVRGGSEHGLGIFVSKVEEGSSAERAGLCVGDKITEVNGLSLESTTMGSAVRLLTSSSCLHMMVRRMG
molecule,measurement,setting,value
ADGRV1-CT △PBM (from UniProt Q8VHN7 6239-6298) (domain or fragment),Kd,[1],9.5 µM
B1,stoichiometry N,[2],2
USH2A-CT (domain or fragment) PSQSQLSHAYSQSSLHRSVSQLMDMADKKVVTEDSLWETIMGHSSGLYVDEEELMNAIKGFSSVTKEHTAFTDTHL,Kd,[3],19 µM
same,stoichiometry N,[4],2
same,Kd,[1],0.68 µM
same,Kd,[5],5.1 µM
same,Kd,[6],1.2 µM
"WHRN NTD (domain or fragment, UniProt Q9P202 33-117, looked up, WHRN N-terminal domain, residues 33-117 of UniProtKB Q9P202; also called N-terminal domain; HHD1; source: E. coli BL21 (DE3), purified (Ni2+-NTA, size-exclusion chromatography)) RLLSANVRQLHQALTALLSEAEREQFTHCLNAYHARRNVFDLVRTLRVLLDSPVKRRLLPMLRLVIPRSDQLLFDQYTAEGLYLP",binding result,[2],binds
"GHSSGLYVDEEELMNAIKGFSSVTKEHTAFTDTHL (domain or fragment) [USH2A-CT (Short, S)]",stoichiometry N (copies per WHRN dimer),[7],2
same,stoichiometry N,[7]; scale: copy per WHRN dimer,1
same,Kd,[8],5.5 µM
same,Kd,[9],16 µM
same,Kd,[1],2.7 µM
same,Kd,[10],4.7 µM
same,Kd,[11],66 µM
same,Kd,[12],15 µM
same,Kd,[13],8.5 µM
same,Kd,[14],56 µM
"ADGRV1-CT (domain or fragment, UniProt Q8VHN7 6239-6298, looked up, ADGRV1 cytoplasmic region, residues 6239-6298 of UniProtKB Q8VHN7; Named Trx-ADGRV1-CT in SEC-MALS; also called Trx-ADGRV1-CT; VLGR1-CT; source: E. coli BL21 (DE3), purified (Ni2+-NTA, size-exclusion chromatography); not shown: Trx, N-terminal, kept) GSLIADEESQEFDDLIFALKTGAGLSVSDNESGQGSQEGGTLTDSQIVELRRIPIADTHL",Kd,[15],9 µM
same,Kd,[3],31 µM
same,stoichiometry N,[7]; both partners purified,2 copies per WHRN dimer and 1 copy per WHRN dimer (three proteins mixed)
same,Kd,[8]; both partners purified,0.41 µM
same,Kd,[9]; both partners purified,0.55 µM
same,Kd,[1]; both partners purified,~1.4 µM
same,Kd,[10]; both partners purified,3.3 µM
